Starred links: 1 amine or outer side, 2 acyl side, 3 side chain; linkers in the order of their positions; H or OH if unused. Non-standard residues stand in square brackets, D forms with d. Groups on a side chain read outwards from the residue. Primed or numbered codes have the meaning given here. No end group written: not given here. *: point of attachment. γGlu = O=C(O)[C@H](CCC(=O)[*:2])N[*:1]; Stearoyl = CCCCCCCCCCCCCCCCCC(=O)*; Palmitoyl = CCCCCCCCCCCCCCCC(=O)*; αMeF = C[C@](N)(Cc1ccccc1)C(=O)O; αMeK = C[C@](N)(CCCCN)C(=O)O; αMeS = C[C@](N)(CO)C(=O)O; PEG2′ = not defined here; Aib = CC(C)(N)C(=O)O
T1: GLP-1R (INS1e assay) (UniProt P32301 22-463, limits assumed)
T1 sequence (looked up): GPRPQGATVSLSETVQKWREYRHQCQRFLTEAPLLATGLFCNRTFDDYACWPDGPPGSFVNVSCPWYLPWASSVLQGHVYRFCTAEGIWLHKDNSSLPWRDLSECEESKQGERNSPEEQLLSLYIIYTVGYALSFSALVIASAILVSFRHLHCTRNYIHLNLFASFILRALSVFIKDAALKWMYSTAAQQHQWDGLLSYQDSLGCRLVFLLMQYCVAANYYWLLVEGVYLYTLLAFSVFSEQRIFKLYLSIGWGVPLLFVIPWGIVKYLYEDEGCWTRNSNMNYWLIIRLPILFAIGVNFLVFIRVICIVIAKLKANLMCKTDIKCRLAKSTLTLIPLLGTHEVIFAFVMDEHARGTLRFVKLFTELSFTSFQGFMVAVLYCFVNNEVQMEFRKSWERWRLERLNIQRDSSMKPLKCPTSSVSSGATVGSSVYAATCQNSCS


The binders below were run against T1, GLP-1R (INS1e assay) (assay: cell-based or functional assay).

Binder | INS1e assay EC50 GLP-1 R n1 [nM] | INS1e assay EC50 GLP-1 R n2 [nM] | INS1e assay EC50 Mean pM GLP-1R [pM]
H[Aib]EGS[αMeF]TSDV[αMeS]S[αMeF]LEGEAA[αMeK]E[αMeF]IK([PEG2′-PEG2′-γGlu-Stearoyl])[αMeF]VV[αMeK]GG-NH2 [SEQ ID NO 105] | 0.22 | 1.72 | 970
H[Aib]EGS[αMeF]TSDV[αMeS]S[αMeF]K([PEG2′-PEG2′-γGlu-Stearoyl])EGEAA[αMeK]E[αMeF]IA[αMeF]VV[αMeK]GG-NH2 [SEQ ID NO 115] | 0.593 | 0.494 | 544
H[Aib]EGS[αMeF]TSDV[αMeS]S[αMeF]LEGEAA[αMeK]E[αMeF]IA[αMeF]VV[αMeK]K([PEG2′-PEG2′-γGlu-Stearoyl])G-NH2 [SEQ ID NO 100] | 0.233 | 1.41 | 822
H[Aib]EGS[αMeF]TSDK([γGlu-Palmitoyl])[αMeS]S[αMeF]LEGEAA[αMeK]E[αMeF]IA[αMeF]VV[αMeK]GG-NH2 (N-terminus assumed; SMILES CCCCCCCCCCCCCCCC(=O)N[C@@H](CCC(=O)NCCCC[C@H](NC(=O)[C@H](CC(=O)O)NC(=O)[C@H](CO)NC(=O)[C@@H](NC(=O)[C@](C)(Cc1ccccc1)NC(=O)[C@H](CO)NC(=O)CNC(=O)[C@H](CCC(=O)O)NC(=O)C(C)(C)NC(=O)[C@@H](N)Cc1c[nH]cn1)[C@@H](C)O)C(=O)N[C@@](C)(CO)C(=O)N[C@@H](CO)C(=O)N[C@@](C)(Cc1ccccc1)C(=O)N[C@@H](CC(C)C)C(=O)N[C@@H](CCC(=O)O)C(=O)NCC(=O)N[C@@H](CCC(=O)O)C(=O)N[C@@H](C)C(=O)N[C@@H](C)C(=O)N[C@@](C)(CCCCN)C(=O)N[C@@H](CCC(=O)O)C(=O)N[C@@](C)(Cc1ccccc1)C(=O)N[C@H](C(=O)N[C@@H](C)C(=O)N[C@@](C)(Cc1ccccc1)C(=O)N[C@H](C(=O)N[C@H](C(=O)N[C@@](C)(CCCCN)C(=O)NCC(=O)NCC(N)=O)C(C)C)C(C)C)[C@@H](C)CC)C(=O)O) [SEQ ID NO 90] | 0.0434 | 0.0586 | 51
H[Aib]EGS[αMeF]TSDV[αMeS]S[αMeF]LEGEAA[αMeK]E[αMeF]IA[αMeF]VK([PEG2′-PEG2′-γGlu-Stearoyl])[αMeK]GG-NH2 [SEQ ID NO 102] | 4.22 | 2.89 | 3560
H[Aib]EGS[αMeF]TSDV[αMeS]S[αMeF]LEGK([PEG2′-PEG2′-γGlu-Stearoyl])AA[αMeK]E[αMeF]IA[αMeF]VV[αMeK]GG-NH2 [SEQ ID NO 112] | 0.294 | 0.476 | 385
H[Aib]EGS[αMeF]TSDV[αMeS]S[αMeF]LEGEAAK([PEG2′-PEG2′-γGlu-Palmitoyl])E[αMeF]IA[αMeF]VV[αMeK]GG-NH2 [SEQ ID NO 109] | 8.35 | 4.32 | 6340
H[Aib]EGS[αMeF]TSDV[αMeS]S[αMeF]LEGEAA[αMeK]EK([PEG2′-PEG2′-γGlu-Stearoyl])IA[αMeF]VV[αMeK]GG-NH2 [SEQ ID NO 107] | 5.23 | 11.7 | 8460
H[Aib]EGS[αMeF]TSDV[αMeS]S[αMeF]LEGEAA[αMeK]E[αMeF]IA[αMeF]K([PEG2′-PEG2′-γGlu-Stearoyl])V[αMeK]GG-NH2 [SEQ ID NO 103] | 0.428 | 0.59 | 509
H[Aib]EGS[αMeF]TSDV[αMeS]SK([PEG2′-PEG2′-γGlu-Stearoyl])LEGEAA[αMeK]E[αMeF]IA[αMeF]VV[αMeK]GG-NH2 [SEQ ID NO 116] | 1.61 | 0.61 | 1110
H[Aib]EGS[αMeF]TSDV[αMeS]S[αMeF]LEGEAA[αMeK]E[αMeF]IA[αMeF]VV[αMeK]GK([PEG2′-PEG2′-γGlu-Stearoyl])-NH2 [SEQ ID NO 99] | 11 | 5.88 | 8440

Further lines, results first:

INS1e assay EC50 GLP-1 R n1 [nM] | INS1e assay EC50 GLP-1 R n2 [nM] | INS1e assay EC50 Mean pM GLP-1R [pM] | Binder
31.6 | 23.1 | 27400 | H[Aib]EGS[αMeF]TSDV[αMeS]S[αMeF]LEGEAK([PEG2′-PEG2′-γGlu-Stearoyl])[αMeK]E[αMeF]IA[αMeF]VV[αMeK]GG-NH2 [SEQ ID NO 110]
0.823 | 1.26 | 1040 | H[Aib]EGS[αMeF]TSDV[αMeS]S[αMeF]LEK([PEG2′-PEG2′-γGlu-Stearoyl])EAA[αMeK]E[αMeF]IA[αMeF]VV[αMeK]GG-NH2 [SEQ ID NO 113]
0.0436 | 0.0622 | 53 | H[Aib]EGS[αMeF]TSDV[αMeS]SK([γGlu-Palmitoyl])LEGEAA[αMeK]E[αMeF]IA[αMeF]VV[αMeK]GG-NH2 (N-terminus assumed; SMILES CCCCCCCCCCCCCCCC(=O)N[C@@H](CCC(=O)NCCCC[C@H](NC(=O)[C@H](CO)NC(=O)[C@](C)(CO)NC(=O)[C@@H](NC(=O)[C@H](CC(=O)O)NC(=O)[C@H](CO)NC(=O)[C@@H](NC(=O)[C@](C)(Cc1ccccc1)NC(=O)[C@H](CO)NC(=O)CNC(=O)[C@H](CCC(=O)O)NC(=O)C(C)(C)NC(=O)[C@@H](N)Cc1c[nH]cn1)[C@@H](C)O)C(C)C)C(=O)N[C@@H](CC(C)C)C(=O)N[C@@H](CCC(=O)O)C(=O)NCC(=O)N[C@@H](CCC(=O)O)C(=O)N[C@@H](C)C(=O)N[C@@H](C)C(=O)N[C@@](C)(CCCCN)C(=O)N[C@@H](CCC(=O)O)C(=O)N[C@@](C)(Cc1ccccc1)C(=O)N[C@H](C(=O)N[C@@H](C)C(=O)N[C@@](C)(Cc1ccccc1)C(=O)N[C@H](C(=O)N[C@H](C(=O)N[C@@](C)(CCCCN)C(=O)NCC(=O)NCC(N)=O)C(C)C)C(C)C)[C@@H](C)CC)C(=O)O) [SEQ ID NO 87]
0.391 | 0.27 | 331 | H[Aib]EGS[αMeF]TSDV[αMeS]S[αMeF]LEGEAA[αMeK]E[αMeF]IAK([PEG2′-PEG2′-γGlu-Stearoyl])VV[αMeK]GG-NH2 [SEQ ID NO 104]
1.93 | 3.5 | 2720 | H[Aib]EGS[αMeF]TSK([γGlu-Palmitoyl])V[αMeS]S[αMeF]LEGEAA[αMeK]E[αMeF]IA[αMeF]VV[αMeK]GG-NH2 (N-terminus assumed; SMILES CCCCCCCCCCCCCCCC(=O)N[C@@H](CCC(=O)NCCCC[C@H](NC(=O)[C@H](CO)NC(=O)[C@@H](NC(=O)[C@](C)(Cc1ccccc1)NC(=O)[C@H](CO)NC(=O)CNC(=O)[C@H](CCC(=O)O)NC(=O)C(C)(C)NC(=O)[C@@H](N)Cc1c[nH]cn1)[C@@H](C)O)C(=O)N[C@H](C(=O)N[C@@](C)(CO)C(=O)N[C@@H](CO)C(=O)N[C@@](C)(Cc1ccccc1)C(=O)N[C@@H](CC(C)C)C(=O)N[C@@H](CCC(=O)O)C(=O)NCC(=O)N[C@@H](CCC(=O)O)C(=O)N[C@@H](C)C(=O)N[C@@H](C)C(=O)N[C@@](C)(CCCCN)C(=O)N[C@@H](CCC(=O)O)C(=O)N[C@@](C)(Cc1ccccc1)C(=O)N[C@H](C(=O)N[C@@H](C)C(=O)N[C@@](C)(Cc1ccccc1)C(=O)N[C@H](C(=O)N[C@H](C(=O)N[C@@](C)(CCCCN)C(=O)NCC(=O)NCC(N)=O)C(C)C)C(C)C)[C@@H](C)CC)C(C)C)C(=O)O) [SEQ ID NO 91]
1.47 | 6.65 | 4060 | H[Aib]EGS[αMeF]TSDV[αMeS]S[αMeF]LEGEAA[αMeK]E[αMeF]IA[αMeF]VVK([PEG2′-PEG2′-γGlu-Stearoyl])GG-NH2 [SEQ ID NO 101]
0.501 | 1.11 | 806 | H[Aib]EGS[αMeF]TSDV[αMeS]S[αMeF]LEGEK([PEG2′-PEG2′-γGlu-Stearoyl])A[αMeK]E[αMeF]IA[αMeF]VV[αMeK]GG-NH2 [SEQ ID NO 111]
0.038 | 0.458 | 248 | H[Aib]EGS[αMeF]TSDV[αMeS]S[αMeF]LEGEAA[αMeK]K([PEG2′-PEG2′-γGlu-Stearoyl])[αMeF]IA[αMeF]VV[αMeK]GG-NH2 [SEQ ID NO 108]
0.277 | 0.415 | 346 | HXEGSFTSDVSKFLEGEAAKEFIAFVVKGG (Aib2; α-MeF6; α-MeS11; K12(ε-γE-Palmitoyl); α-MeF13; α-MeK20; α-MeF22; α-MeF25; α-MeK28; C-terminal amide) [SEQ ID NO 88]

Source: patent US20200079833A1 (AstraZeneca / MedImmune, published 2020)
